# Measurements reported in patent publication US8481333B2 (IDEXX Laboratories, Inc., priority 2011, dated 2013).
# Entries after “also recorded” stand apart in the source; their conditions may differ.
# Experiments:
# [1] = type: in vitro ADME, feline
# Protocol: For plasma extraction, 100 uL of plasma was precipitated by addition of 200 uL methanol in a 1.5 mL protein LoBind eppendorf tube. After vortexing for 10 seconds, the precipitate was pelleted by centrifugation at 13,000 rpm for 15 minutes at 10° C. using a benchtop centrifuge. The supernatant was transferred to a limited volume glass HPLC vial and analyzed by LC/MS as described in the following examples.
# To characterize the fsNT-proBNP stable degradation products present after incubation in feline plasma, fsNT-proBNP was added to feline plasma at 1, 5, and 10 μg/mL and incubated at room temperature. At 0, 24, 48, 96, and 192 hours, 100 μL aliquots of the plasma were collected and combined with 200 μL of methanol to form a precipitate. After centrifugation, the supernatant was analyzed for stable peptides by LC/MS as described in Example 1.
# The relative abundance of several fragments from the N-terminal, capture, and C-terminal regions were evaluated over time.
# feline plasma = conditions: room temperature, up to 192 hours
Sequence,prevalence of polypeptide fragments in plasma [1],fragment found (feline plasma)
LQQGHSPAESWEAQEEPPARVLAPHDNVLR (Preferred Feline NT-proBNP C-Terminal Peptide Plasma Degradent) [SEQ ID NO:10],most prevalent,–
LGPLQQGHSPAESWEAQEEPPARVLAPHDNVLR (Preferred Feline NT-proBNP C-Terminal Peptide Plasma Degradent) [SEQ ID NO: 9],most prevalent,–
ASEASAIQELLDGLRDTVSEL (Preferred Feline NT-proBNP N-Terminal Peptide Plasma Degradent) [SEQ ID NO: 5],most prevalent,–
HPLGGPGPASEASAIQELLDGLRDTVSELQEAQMALGPLQQGHSPAESWEAQEEPPARVLAPHDNVLRALRRLGSSKM,–,"ASEASAIQELLDGLRDTVSEL, major; also recorded: DGLRDTVSEL; also recorded: LDGLRDTVSELQEAQM; also recorded: LGPLQQGHSPAESWEAQEEPPAR; also recorded: LGPLQQGHSPAESWEAQEEPPARVLAPHDNVLR, major; also recorded: LQQGHSPAESWEAQEEPPARVLAPHDNVLR, major; also recorded: VLAPHDNVLR"
